Measured values as given in PMC4932917, “Structural basis for acyl-group discrimination by human Gcn5L2” (Acta Crystallographica. Section D, Structural Biology, 2016).

Substrate: CC(=O)SCCNC(=O)CCNC(=O)[C@H](O)C(C)(C)COP(=O)(O)OP(=O)(O)OC[C@H]1O[C@@H](n2cnc3c(N)ncnc32)[C@H](O)[C@@H]1OP(=O)(O)O
Assay: purified protein
Conditions: acyl-CoA site of the active site

B1: human Gcn5L2 (hsGcn5L2) (Homo sapiens) (protein)
chain: GIIEFHVIGNSLTPKANRRVLLWLVGLQNVFSHQLPRMPKEYIARLVFDPKHKTLALIKDGRVIGGICFRMFPTQGFTEIVFCAVTSNEQVKGYGTHLMNHLKEYHIKHNILYFLTYADEYAIGYFKKQGFSKDIKVPKSRYLGYIKDYEGATLMECELNPRIPYT
  Km: 0.91 ± 0.09 µM
